Experimental data as given in patent US20250145711A1 (Janssen / Centocor, published 2025).

Tests used:
recombinant human PSMA = target: T1, recombinant human PSMA (human, UniProt Q04609 44-750); assay: SPR (Biacore 8K), antibody captured on anti-Fc, PSMA in solution
T1 construct: also called hu PSMA; prostate-specific membrane antigen
Description: The antibodies were captured on a goat anti-Fc antibody-modified C1 chip and titrated with 3-fold serial dilutions of PSMA antigen spanning concentrations of 1 nM to 100 nM human PSMA. The association and dissociation were monitored for 3 and 30 minutes, respectively, using a flow rate of 50 μL/min. Raw binding data was referenced by subtracting the analyte binding signals from blanks and analyzed using a 1:1 Langmuir binding model by the Biacore Insight evaluation software to obtain the kinetics which were used to calculate the binding affinity. The anti-PSMA were captured using an anti-human Fc antibody and the antigens were injected in solution.

[1] = target: T2, human PSMA on prostate cancer cell lines (22RV1, C4-2B) (human, UniProt Q04609 1-750); assay: flow cytometry on C4-2B cells, four-parameter fit
T2 construct: also called PSMA-expressing cell lines
T2 sequence (Q04609 whole entry): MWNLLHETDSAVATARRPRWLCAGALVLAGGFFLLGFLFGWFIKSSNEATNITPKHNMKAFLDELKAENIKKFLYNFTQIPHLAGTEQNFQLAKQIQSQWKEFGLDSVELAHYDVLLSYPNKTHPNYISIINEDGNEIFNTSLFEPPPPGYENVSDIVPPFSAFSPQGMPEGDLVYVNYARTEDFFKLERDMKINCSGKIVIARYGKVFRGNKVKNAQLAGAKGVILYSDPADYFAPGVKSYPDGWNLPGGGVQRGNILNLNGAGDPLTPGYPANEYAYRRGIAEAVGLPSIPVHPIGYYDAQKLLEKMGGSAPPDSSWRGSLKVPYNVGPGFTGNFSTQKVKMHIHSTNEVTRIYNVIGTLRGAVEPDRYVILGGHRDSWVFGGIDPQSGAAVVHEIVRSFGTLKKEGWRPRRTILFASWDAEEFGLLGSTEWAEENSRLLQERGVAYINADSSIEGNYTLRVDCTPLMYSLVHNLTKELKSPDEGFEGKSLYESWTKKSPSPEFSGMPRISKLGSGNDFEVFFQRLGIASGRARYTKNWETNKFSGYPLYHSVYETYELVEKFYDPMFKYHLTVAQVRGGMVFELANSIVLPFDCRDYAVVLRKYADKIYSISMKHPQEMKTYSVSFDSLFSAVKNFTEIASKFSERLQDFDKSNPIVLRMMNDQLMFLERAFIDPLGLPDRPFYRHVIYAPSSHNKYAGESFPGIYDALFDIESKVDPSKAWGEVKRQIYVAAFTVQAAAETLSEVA
Description: Molecule concentrations ranged from 500-0 nM over 12-points at 3-fold dilution. […] Values reported in the Table 69 were generated by fitting the data to a four-parameter function for ligand binding generating values for y-min, y-max, EC50, and Hill. EC90 were calculated using the equation EC90=[…]\hat{ }(1/Hill)*EC50.

[2] = target: T3, Human CD3 epsilon (CD3ε), on primary human pan T cells (human, UniProt P07766 23-207); assay: flow cytometry on human T cells, anti-human IgG Fc A647 detection
T3 construct: Endogenous CD3 in the TCR complex on T cells; also called T-cell surface glycoprotein CD3 epsilon chain; T3E
T3 sequence (P07766 23-207 limits assumed): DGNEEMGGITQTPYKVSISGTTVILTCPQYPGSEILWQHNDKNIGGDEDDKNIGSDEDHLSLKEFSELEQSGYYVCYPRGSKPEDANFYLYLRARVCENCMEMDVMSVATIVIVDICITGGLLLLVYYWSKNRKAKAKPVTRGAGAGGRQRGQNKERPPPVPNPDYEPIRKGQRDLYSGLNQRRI
Description: The bsAbs were assayed for their abilities bind T cells and to induce T-cell mediated cytotoxicity against H929 cells (ATCC@CRL-9068™). […] Stain buffer with no antibody was added to bottom 4 wells and assign as background control (secondary antibody alone). Parental Cris7b, CD3B695 (bivalent mAb controls) and CD3B375 (bsAb which was monovalent for Cris-7b) were added also with full dose-response curves.
Frozen T-cells were thawed in a 37° C. water bath and transferred gently into conical tube containing warm 5 mL media (RPMI+10% FBS)/1 vial of 1×10⁶ cells. Cells were mixed and centrifuged for 5 minutes at 400×g followed by resuspension in flow staining buffer, and counted and viability checked. Cells were then plated in 50 uL/50,000 cells/well into assay plates. Assay positive control mAb was added in the first column in quadruplicates at 2× at 20 nM in the bottom 4 wells. Stain buffer with no mAb was added to the top 4 wells and assigned as background controls (secondary antibody alone). Serially diluted antibody samples were added at 50 uL/well using Intergra Viaflo according to the attached plate maps and incubated for 1 hr at 37° C. After one hour incubation, 150 uL staining buffer were added to all wells, and cells were spun at 500×g for 5 minutes to pellet cells. Cells were then washed prior to addition of Alexa Fluor 647 (A647) conjugated anti human IgG Fc specific secondary detection antibody at 2 ug/mL in staining buffer. Secondary detection antibody was added at 50 uL/well to the washed cells. Plates were covered with foil and incubated for 30 minutes on ice or in the fridge. 150 uL staining buffer were added to all wells, and cells were spun at 500×g for 5 min to pellet cells. Cells were resuspended in 20 uL running buffer containing 1:1000 dilution of SYTOX™ green dead cell stain and run plates on iQue® Screener flow cytometer (Essen BioScience, Inc.). Briefly, cells were gated on FCS vs. SCS dot plot to eliminate debris. Singlets were gated on SCS-A vs SCS-H dot plot and from singlet population, live cells gated choosing BL1 channel for low/negative with SYTOX™ green viability stain (Thermo Fisher).

T1 sequence (Q04609 44-750 limits assumed): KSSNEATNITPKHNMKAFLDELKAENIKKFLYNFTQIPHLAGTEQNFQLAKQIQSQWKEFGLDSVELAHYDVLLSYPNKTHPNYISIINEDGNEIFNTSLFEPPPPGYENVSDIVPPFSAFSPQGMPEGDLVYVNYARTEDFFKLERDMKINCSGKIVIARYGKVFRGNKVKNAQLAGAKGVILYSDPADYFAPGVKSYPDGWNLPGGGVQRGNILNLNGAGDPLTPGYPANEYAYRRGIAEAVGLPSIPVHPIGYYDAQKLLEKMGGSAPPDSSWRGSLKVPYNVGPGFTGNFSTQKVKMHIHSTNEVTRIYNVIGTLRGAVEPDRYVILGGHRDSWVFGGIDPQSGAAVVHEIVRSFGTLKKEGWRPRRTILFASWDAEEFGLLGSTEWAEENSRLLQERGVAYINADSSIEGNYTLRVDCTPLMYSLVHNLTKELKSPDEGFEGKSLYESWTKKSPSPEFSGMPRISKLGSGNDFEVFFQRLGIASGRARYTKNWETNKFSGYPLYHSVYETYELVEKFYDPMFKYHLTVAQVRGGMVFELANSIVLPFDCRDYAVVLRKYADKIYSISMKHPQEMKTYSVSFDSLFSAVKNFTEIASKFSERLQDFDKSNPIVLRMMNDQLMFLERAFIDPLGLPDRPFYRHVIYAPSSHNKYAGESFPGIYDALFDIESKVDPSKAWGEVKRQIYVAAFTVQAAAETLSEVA

Binder | Kd (recombinant human PSMA) [nM] | koff (recombinant human PSMA) [s⁻¹] | kon (recombinant human PSMA) [M⁻¹ s⁻¹] | EC50 [1] [nM] | EC90 [1] [nM] | Y-max [1] | Y-min [1] | EC50 [2] [nM]
PSMB1051 (bispecific antibody, human IgG1, kappa, L234A L235A, HC1 (ZWA): B23B62-Fab; LC2 is NA) heavy: not shown light: not shown QSVLTQPPSASGTPGQGVTISCSGSSSNIGSNTVNWFQQLPGTAPKLLIYSDNQRPSGVPDRFSGSKSGTSASLAISGLQSEDEADYYCAAWDDSLNGYVFGTGTKVTVLGGSEGKSSGSGSESKSTGGSEVQLVESGGGVVQPGRSLRLSCAASGFTFITYGMHWVRQAPGKGLEWVAVVSFDESNKYYADSVKGRFTISRDNSKNTLYLQMNSLRAEDTAVYYCARALRDGNNWDYFNGMDVWGQGTTVTVSSEPKSSDKTHTCPPCPAPEAAGGPSVFLFPPKPKDTLMISRTPEVTCVVVSVSHEDPEVKFNWYVDGVEVHNAKTKPREEQYNSTYRVVSVLTVLHQDWLNGKEYKCKVSNKALPAPIEKTISKAKGQPREPQVYVLPPSREEMTKNQVSLLCLVKGFYPSDIAVEWESNGQPENNYLTWPPVLDSDGSFFLYSKLTVDKSRWQQGNVFSCSVMHEALHNHYTQKSLSLSPG | 1.01 | 7.75e-05 | 77100 | 10 | 76 | 1.5e+06 | 67000 | –
BC3B116 (bispecific antibody, human IgG1, kappa, L234A L235A, IgG1 BCMAxCD3; HC1: CD3B2030 LH scFv-Fc; also called BC3B116.001; B2030 LH) EIVLTQSPATLSASPGERVTLSCSASSSVSYMNWYQQKPGQAPRRWIYDSSKLASGVPARFSGSGSGRDYTLTISSLEPEDFAVYYCQQWSRNPPTFGGGTKVEIKGGSEGKSSGSGSESKSTGGSQVQLVQSGAEVKKPGSSVKVSCKASGYTFTRSTMHWVKQAPGQGLEWIGYINPSSAYTNYNQKFQGRVTLTADKSTSTAYMELSSLRSEDTAVYYCASPQVHYDYNGFPYWGQGTLVTVSSEPKSSDKTHTCPPCPAPEAAGGPSVFLFPPKPKDTLMISRTPEVTCVVVSVSHEDPEVKFNWYVDGVEVHNAKTKPREEQYNSTYRVVSVLTVLHQDWLNGKEYKCKVSNKALPAPIEKTISKAKGQPREPQVYVYPPSREEMTKNQVSLTCLVKGFYPSDIAVEWESNGQPENNYKTTPPVLDSDGSFALVSKLTVDKSRWQQGNVFSCSVMHEALHNHYTQKSLSLSPG heavy: not shown light: EIVLTQSPGTLSLSPGERATLSCRASQSISSSFLTWYQQKPGQAPRLLIYGASSRATGIPDRFSGGGSGTDFTLTISRLEPEDFAVYYCQHYGSSPMYTFGQGTKLEIKRTVAAPSVFIFPPSDEQLKSGTASVVCLLNNFYPREAKVQWKVDNALQSGNSQESVTEQDSKDSTYSLSSTLTLSKADYEKHKVYACEVTHQGLSSPVTKSFNRGEC | – | – | – | – | – | – | – | 21.8
BC3B120 (bispecific antibody, human IgG1, kappa, L234A L235A, IgG1 BCMAxCD3; HC1: CD3B2051 LH scFv-Fc; also called BC3B120.001; B2051 LH) EIVLTQSPATLSASPGERVTLSCSASSSVSYMNWYQQKPGQAPRRLIYDSSKLASGVPARFSGSGSGRDYTLTISSLEPEDFAVYYCQQWSRNPPTFGGGTKVEIKGGSEGKSSGSGSESKSTGGSQVQLVQSGAEVKKPGSSVKVSCKASGYTFTRSTMHWVKQAPGQGLEWMGYINPSSAYTNYNQKFQGRVTLTADKSTSTAYMELSSLRSEDTAVYYCASPQVHYDYNGFPYWGQGTLVTVSSEPKSSDKTHTCPPCPAPEAAGGPSVFLFPPKPKDTLMISRTPEVTCVVVSVSHEDPEVKFNWYVDGVEVHNAKTKPREEQYNSTYRVVSVLTVLHQDWLNGKEYKCKVSNKALPAPIEKTISKAKGQPREPQVYVYPPSREEMTKNQVSLTCLVKGFYPSDIAVEWESNGQPENNYKTTPPVLDSDGSFALVSKLTVDKSRWQQGNVFSCSVMHEALHNHYTQKSLSLSPG heavy: not shown light: EIVLTQSPGTLSLSPGERATLSCRASQSISSSFLTWYQQKPGQAPRLLIYGASSRATGIPDRFSGGGSGTDFTLTISRLEPEDFAVYYCQHYGSSPMYTFGQGTKLEIKRTVAAPSVFIFPPSDEQLKSGTASVVCLLNNFYPREAKVQWKVDNALQSGNSQESVTEQDSKDSTYSLSSTLTLSKADYEKHKVYACEVTHQGLSSPVTKSFNRGEC | – | – | – | – | – | – | – | 100
BC3B125 (bispecific antibody, human IgG1, kappa, L234A L235A, IgG1 BCMAxCD3; HC1: CD3B2089 LH scFv-Fc; also called BC3B125.001; B2089 LH) EIVLTQSPATLSASPGERVTLSCSASSSVSYMNWYQQKPGQAPRRWIYDSSKLASGVPARFSGSGSGRDYTLTISSLEPEDFAVYYCQQWSRNPPTFGGGTKVEIKGGSEGKSSGSGSESKSTGGSQVQLVQSGAEVKKPGSSVKVSCKASGYTFTRSTMHWVRQAPGQGLEWMGYINPSSAYTNYAQKFQGRVTLTADKSTSTAYMELSSLRSEDTAVYYCASPQVHYDYNGFPYWGQGTLVTVSSEPKSSDKTHTCPPCPAPEAAGGPSVFLFPPKPKDTLMISRTPEVTCVVVSVSHEDPEVKFNWYVDGVEVHNAKTKPREEQYNSTYRVVSVLTVLHQDWLNGKEYKCKVSNKALPAPIEKTISKAKGQPREPQVYVYPPSREEMTKNQVSLTCLVKGFYPSDIAVEWESNGQPENNYKTTPPVLDSDGSFALVSKLTVDKSRWQQGNVFSCSVMHEALHNHYTQKSLSLSPG heavy: not shown light: EIVLTQSPGTLSLSPGERATLSCRASQSISSSFLTWYQQKPGQAPRLLIYGASSRATGIPDRFSGGGSGTDFTLTISRLEPEDFAVYYCQHYGSSPMYTFGQGTKLEIKRTVAAPSVFIFPPSDEQLKSGTASVVCLLNNFYPREAKVQWKVDNALQSGNSQESVTEQDSKDSTYSLSSTLTLSKADYEKHKVYACEVTHQGLSSPVTKSFNRGEC | – | – | – | – | – | – | – | 36.9
BC3B124 (bispecific antibody, human IgG1, kappa, L234A L235A, IgG1 BCMAxCD3; HC1: CD3B2051-N106S LH scFv-Fc; also called BC3B124.001; B2051 LH NtoS) EIVLTQSPATLSASPGERVTLSCSASSSVSYMNWYQQKPGQAPRRLIYDSSKLASGVPARFSGSGSGRDYTLTISSLEPEDFAVYYCQQWSRNPPTFGGGTKVEIKGGSEGKSSGSGSESKSTGGSQVQLVQSGAEVKKPGSSVKVSCKASGYTFTRSTMHWVKQAPGQGLEWMGYINPSSAYTNYNQKFQGRVTLTADKSTSTAYMELSSLRSEDTAVYYCASPQVHYDYSGFPYWGQGTLVTVSSEPKSSDKTHTCPPCPAPEAAGGPSVFLFPPKPKDTLMISRTPEVTCVVVSVSHEDPEVKFNWYVDGVEVHNAKTKPREEQYNSTYRVVSVLTVLHQDWLNGKEYKCKVSNKALPAPIEKTISKAKGQPREPQVYVYPPSREEMTKNQVSLTCLVKGFYPSDIAVEWESNGQPENNYKTTPPVLDSDGSFALVSKLTVDKSRWQQGNVFSCSVMHEALHNHYTQKSLSLSPG heavy: not shown light: EIVLTQSPGTLSLSPGERATLSCRASQSISSSFLTWYQQKPGQAPRLLIYGASSRATGIPDRFSGGGSGTDFTLTISRLEPEDFAVYYCQHYGSSPMYTFGQGTKLEIKRTVAAPSVFIFPPSDEQLKSGTASVVCLLNNFYPREAKVQWKVDNALQSGNSQESVTEQDSKDSTYSLSSTLTLSKADYEKHKVYACEVTHQGLSSPVTKSFNRGEC | – | – | – | – | – | – | – | 300
PSMB1045 (bispecific antibody, human IgG1, kappa, L234A L235A, HC1 (ZWA): B23B62-Fab; LC2 is NA) heavy: not shown light: not shown SYELMQPPSVSVSPGQTARITCSGDALPKQYAYWYQQKPGQAPVLVIYKDSERPSGIPVRFSGSSSGTTVTLTITGVQAEDEADYYCQSADSSGTYVFGTGTKVTVLGGSEGKSSGSGSESKSTGGSQVQLVESGGGVVQPGRSLRLSCAASGFTFSSYNMNWVRQAPGKGLEWVAIIYYDGSNKYYADSVKGRFTISRDISKNTLYLQMNSLRAEDTAVYYCARERGRDYYGMDVWGQGTTVTVSSEPKSSDKTHTCPPCPAPEAAGGPSVFLFPPKPKDTLMISRTPEVTCVVVSVSHEDPEVKFNWYVDGVEVHNAKTKPREEQYNSTYRVVSVLTVLHQDWLNGKEYKCKVSNKALPAPIEKTISKAKGQPREPQVYVLPPSREEMTKNQVSLLCLVKGFYPSDIAVEWESNGQPENNYLTWPPVLDSDGSFFLYSKLTVDKSRWQQGNVFSCSVMHEALHNHYTQKSLSLSPG | 0.333 | 6.98e-05 | 209000 | 7 | 248 | 1.8e+06 | 53000 | –
PSMB1049 (bispecific antibody, human IgG1, kappa, L234A L235A, HC1 (ZWA): B23B62-Fab; LC2 is NA) heavy: not shown light: not shown QSVLTQPASVSGSPGQSITISCTGTSSDVGGYNYVSWYQQHPGKAPKLMIYEVSNRPSGVSNRFSGSKSGNTASLTISGLQAEDEADYYCSSYTSSYTYVFGTGTKLTVLGGSEGKSSGSGSESKSTGGSEVQLVESGGDLVQPGGSLRLSCAASGFTFNNYNMNWVRQAPGKGLEWVSHISTSSSNKYYADSVKGRFSISRDIAKNSMYLQMNSLRDEDTAVYYCARDGVGADYGDYYYYGMDVWGQGTTVTVSSEPKSSDKTHTCPPCPAPEAAGGPSVFLFPPKPKDTLMISRTPEVTCVVVSVSHEDPEVKFNWYVDGVEVHNAKTKPREEQYNSTYRVVSVLTVLHQDWLNGKEYKCKVSNKALPAPIEKTISKAKGQPREPQVYVLPPSREEMTKNQVSLLCLVKGFYPSDIAVEWESNGQPENNYLTWPPVLDSDGSFFLYSKLTVDKSRWQQGNVFSCSVMHEALHNHYTQKSLSLSPG | 0.657 | 7.02e-05 | 107000 | 5 | 40 | 1.5e+06 | 84000 | –
